Data set [1] concerns RNA molecular beacon and Target RNA. Put plainly: RNA annealing kinetics (molecular beacon and Target RNAs), stopped-flow fluorescence. The class given is biochemical. Conditions: 50 nM molecular beacon, 100 nM Target, Hfq65 variants, TNK buffer, 30 °C. Here is the method: (§1) Figure 2. CTD and RNA occupy the same rim binding site. […] The CTD linker is shown in purple, the acidic tip in red and the N-terminal FITC as a yellow star. Hfq core is shown in cyan, with basic rim patches in dark blue. […] (C) Reaction scheme for annealing an RNA molecular beacon to a target RNA (open bar) ([Hopkins et al., 2011]; [Panja et al., 2015]). (D) Progress curves for annealing 50 nM molecular beacon and 100 nM Target by 50 nM Hfq65 hexamer at 30°C, measured by stopped-flow fluorescence. See Figure 2—figure supplement 3 for further data. (E) Contribution of core residues to CTD binding. Interaction energy (Expected Energetic Contribution; EEC) in silico for a core residue in the Rosetta models (solid symbols and solid line; adjusted R^2 = 0.77) or the average annealing rates for Target and Target-A18 relative to Hfq65 (open symbols and dashed line; adjusted R^2 = 0.94) versus experimental CTD binding energy (∆∆G°) for each Hfq65 variant. The binding energy, ∆∆G° = –RTln(Kd^MUT/Kd), reflects the perturbation to CTD binding by a mutation in Hfq65. The interaction energy in silico or EEC is defined as the average energy of a tail–core interaction multiplied by the average number of tail–core interactions per model (Figure 1B, top and Equation 3). The relative annealing rate for Hfq65 variants, krel = kobs^MUT/kobs^WT, is <1 if the mutated residue is important for RNA annealing. Figure 2—figure supplement 1. SDS-PAGE of purified Hfq variants. […] Annealing of 100 nM Target RNA to 50 nM beacon RNA by Hfq65 and Hfq65 variants was measured by stopped flow fluorescence at 30°C in 1 × TNK buffer. […] The change in fluorescence emission intensity was normalized to the maximum fluorescence within an experiment. […]
To determine how much core residues that bind the CTD contribute to Hfq’s RNA annealing activity, we compared the effect of rim mutations on the rate of base pairing between an RNA molecular beacon and the 16 nt Target RNA by stopped-flow fluorescence spectroscopy (Figure 2C) ([Hopkins et al., 2011]). […]

Data set [2] can be described thus: SDS-PAGE oligomerization of purified Hfq variants. Conditions: 4–20% SDS-PAGE, ~2.8 µg protein, 2% SDS, boiled. The class given is physicochemical, E. coli. The procedure: as §1, with “variants. WT Hfq assembles into hexamers and dodecamers that are stable to SDS-PAGE, which can be used to evaluate the oligomerization of Hfq variants. Purified Hfq protein (~2.8 µg) was separated on a 4–20% SDS-PAGE gel and stained with Coomassie blue (lanes 2–6). Samples were prepared in 2% SDS and boiled before loading. Lane 1, Protein standards (10 µL All Blue Precision Plus, […]).” for “variants.”

A short description of data set [3]: protein stability of Hfq65-K3 mutants. Format: physicochemical, E. coli.
Data set [4] deals with T1, E. coli Hfq65 (Hfq core; truncated variant lacking the CTD) (E. coli, UniProt P0A6X3 1-65).
T1 construct: Untagged; Forms a homohexameric ring; also called core Hfq; Hfq65 core
Put plainly: fluorescence polarisation; 45 nM FITC-labelled peptide titrated with Hfq65 or variant (0–100 µM Hfq monomer), 50 mM Tris·HCl pH 7.5 (low salt), 30 °C, duplicate, single-site isotherm; Kd in Hfq monomer. Conditions: both partners purified. (Polarisation of emitted light reports the rotation of a fluorescent probe.)

Data set [5] has as its target Hfq65 (Hfq core, CTD deleted) (Escherichia coli, UniProt P0A6X3 1-65). Kind of data set: competition; displaces CTD-FITC peptide; strong; IC50 only in figure; Anisotropy: 10 mM Tris-HCl pH 7.5, 50 mM NaCl, 50 mM KCl, 30 C; CTD-FITC competition: 50 mM Tris-HCl pH 7.5, 30 C; pUC19 EMSA: 40 mM Tris-HCl pH 7.5, 0.14 mM EDTA, 35 mM NH4Cl, 3.7% glycerol, 25 C (competition legend 30 C). The settings on record: protein: recombinant, tags: untagged, chain copies: 6.

The target of a further data set is Hfq102 (wild-type Hfq) (Escherichia coli, UniProt P0A6X3 1-102). Put plainly: competition; vs pUC19 EMSA; strongest, saturates at 1:1; Anisotropy: 10 mM Tris-HCl pH 7.5, 50 mM NaCl, 50 mM KCl, 30 C; CTD-FITC competition: 50 mM Tris-HCl pH 7.5, 30 C; pUC19 EMSA: 40 mM Tris-HCl pH 7.5, 0.14 mM EDTA, 35 mM NH4Cl, 3.7% glycerol, 25 C (competition legend 30 C). Conditions: protein: recombinant, tags: untagged, chain copies: 6. Background: In EMSA bound probe runs differently from free probe, usually more slowly.

A further data set deals with Hfq102·pUC19 complex. Put plainly: RNA or DNA competition of Hfq102·pUC19 complexes, EMSA. Format: binding, E. coli. The procedure: Figure 5. CTD and RNAs inhibit DNA binding to Hfq by obstructing the basic rim patch. (A, B) Agarose gel electrophoretic mobility shift assays of 0–3.3 μM hexamer Hfq102, Hfq102-R16A, Hfq65 or Hfq65-R16A binding to 6 nM linear pUC19 DNA ([…]) at 25°C, stained with SYBR Gold. Hfq65 forms large aggregates that fail to enter the gel (Figure 5—figure supplement 1). (C, D) Line densitometry of DNA migration in (A, B). Free pUC19 (no Hfq) is shown in light grey. Samples with increasing Hfq concentration are shown in darker shades of grey. (E, F) RNA competition. Complexes of 0.5 μM Hfq102 hexamer and 6 nM linear pUC19 (black) were challenged by 0–2 μM RNA or DNA competitor (darker shades of red). pUC19 control in the absence of Hfq is shown in light grey. […] Digestion of Hfq65 and Hfq65-R16A with Proteinase K liberates DNA from Hfq•DNA aggregates, allowing it to be detected (lanes 9 and 10). […] The small proportion of Hfq65·DNA complexes remaining in the supernatant were only detected in the gel after treatment with salt. […]
Samples (10 µL) containing linear pUC19 (0.145 nmol bp), 0–3.333 µM Hfq hexamer, in 40 mM Tris-HCl pH 7.5, 0.14 mM EDTA, 35 mM NH4Cl, 3.7% (v/v) glycerol, 0.05% (w/v) bromophenol blue were incubated at 25°C for 30 min. […] The fluorescence intensity was measured on a line from the bottom edge of the well through the middle of the lane to visualize the migration of pUC19. […]

*: point of attachment. FITC = O=C1OC2(c3ccc(O)cc3Oc3cc(O)ccc32)c2ccc(NC(=S)*)cc21; Ahx = NCCCCCC(=O)O

With Hfq65-Q35A, the “observed annealing rate of Hfq65 rim mutants” value in data set [1] is given as “relatively unaffected”.

Consider “Hfq102-R16A: rim mutation R16A of full-length Hfq (printed R16A in b39)”, for which, in data set [2], the “oligomeric state on SDS-PAGE” value is “only forms hexamer (blue dot) and monomer”.

For the molecule Hfq65-K3S, the “formation of stable protein” value in data set [3] is “neither Hfq65-K3S nor Hfq65-K3Q formed stable proteins”. Take Hfq65-K3Q: the “formation of stable protein” value in data set [3] is listed as “neither Hfq65-K3S nor Hfq65-K3Q formed stable proteins”.

B1: BsCTD-FITC (B. subtilis Hfq CTD peptide) (peptide)
peptide: {FITC-Ahx}-QLELE-OH
SMILES: CC(C)C[C@H](NC(=O)[C@H](CCC(=O)O)NC(=O)[C@H](CC(C)C)NC(=O)[C@H](CCC(N)=O)NC(=O)CCCCCNC(=S)Nc1ccc2c(c1)C(=O)OC21c2ccc(O)cc2Oc2cc(O)ccc21)C(=O)N[C@@H](CCC(=O)O)C(=O)O
notes: Hfq, Bacillus subtilis, C-terminal end of the CTD; also called BsCTD-FITC peptide
Take B1: the Kd (in general, a measure of binding affinity in units of concentration) in data set [4] was 8.7 µM.

B2: RyhB sRNA (structured_RNA)
RNA: GGGCGAUCAGGAAGACCCUCGAGGAGAACCUGAAAGCACGACAUUGCUCACAUUGCUUCCAGUAUUACUUAGCCAGCCGGGUGCUGGCUUUUU
As for B2, the binding result (in data set [5]; with Hfq102 (wild-type Hfq)) was “binds” each time.

B3: RyhB: sRNA, transcribed in vitro (nucleic acid)
chain: B2 RNA
modifications: unmodified RNA
notes: sRNA, transcribed in vitro
In the case of B3, the “competition against pUC19 DNA for binding to Hfq102” value in the data set with Hfq102·pUC19 complex is given as “strongest competitors”.

B4: ChiX sRNA (structured_RNA)
RNA: GGGACACCGUCGCUUAAAGUGACGGCAUAAUAAUAAAAAAAUGAAAUUCCUCUUUGACGGGCCAAUAGCGAUAUUGGCCAUUUUUUU
Take B4: the binding result (in data set [5] (label: 32P in annealing EMSA); with Hfq102 (wild-type Hfq) (label: 32P in annealing EMSA)) was “binds” in each case.

B5: ChiX: Class II sRNA, transcribed in vitro (nucleic acid)
chain: B4 RNA
modifications: unmodified RNA
notes: Class II sRNA, transcribed in vitro
Consider B5, for which the “competition against pUC19 DNA for binding to Hfq102” value with Hfq102·pUC19 complex is “strongest competitors”.

B6: RprA sRNA (structured_RNA)
RNA: GGGACGGUUAUAAAUCAACAUAUUGAUUUAUAAGCAUGGAAAUCCCCUGAGUGAAACAACGAAUUGCUGUGUGUAGUCUUUGCCCAUCUCCCACGAUGGGCUUUUUUUU
On to B6, for which the binding result in data set [5] is “binds”.

B7: DsrA sRNA (structured_RNA)
RNA: GGGAACACAUCAGAUUUCCUGGUGUAACGAAUUUUUUAAGUGCUUCUUGCUUAAGCAAGUUUCAUCCCGACCCCCUCAGGGUCGGGAUUUUUUU
On to B7, for which the binding result in data set [5] is recorded as “binds”.

For the origin of these results see article PMC5606850, “Acidic C-terminal domains autoregulate the RNA chaperone Hfq” (eLife, 2017).
